Experimental data taken from patent publication US20180273604A1 (ALBERT EINSTEIN COLLEGE OF MEDICINE, published 2018).
Where a chain is given by its changes, count along the chain named.

T1: tumor necrosis factor receptor 1B (TNFR-1B), human, expressed on HEK 293 cells (human, UniProt P20333 23-461)
T1 construct: also called TNFR-1B-mCHERRY; Human TNFR-1B; not shown: C-terminal fluorescent protein (mCherry as query, GFP as library or panel member)
T1 sequence: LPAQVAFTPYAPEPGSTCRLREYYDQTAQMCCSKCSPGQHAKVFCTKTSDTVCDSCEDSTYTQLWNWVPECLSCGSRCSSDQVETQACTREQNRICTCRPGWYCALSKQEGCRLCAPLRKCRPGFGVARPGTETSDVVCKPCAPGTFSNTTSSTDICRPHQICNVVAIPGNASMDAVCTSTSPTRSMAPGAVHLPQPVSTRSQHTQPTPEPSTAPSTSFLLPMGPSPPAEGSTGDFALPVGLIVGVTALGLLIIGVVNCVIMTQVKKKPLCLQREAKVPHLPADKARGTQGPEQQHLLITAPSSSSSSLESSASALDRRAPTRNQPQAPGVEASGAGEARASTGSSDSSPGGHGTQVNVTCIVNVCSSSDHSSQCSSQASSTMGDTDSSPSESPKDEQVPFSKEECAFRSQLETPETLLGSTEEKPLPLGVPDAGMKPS

T2: TNFR-1B mutant D58A (human, UniProt P20333 23-461)
T2 construct: Point mutant expressed as mCherry fusion in HEK 293 cells; not shown: C-terminal mCherry fusion
T2 sequence: T1 sequence with D58A

T3: NGFR, human, expressed on cells (human, UniProt P08138 29-427)
T3 construct: whole, on cells
T3 sequence (looked up): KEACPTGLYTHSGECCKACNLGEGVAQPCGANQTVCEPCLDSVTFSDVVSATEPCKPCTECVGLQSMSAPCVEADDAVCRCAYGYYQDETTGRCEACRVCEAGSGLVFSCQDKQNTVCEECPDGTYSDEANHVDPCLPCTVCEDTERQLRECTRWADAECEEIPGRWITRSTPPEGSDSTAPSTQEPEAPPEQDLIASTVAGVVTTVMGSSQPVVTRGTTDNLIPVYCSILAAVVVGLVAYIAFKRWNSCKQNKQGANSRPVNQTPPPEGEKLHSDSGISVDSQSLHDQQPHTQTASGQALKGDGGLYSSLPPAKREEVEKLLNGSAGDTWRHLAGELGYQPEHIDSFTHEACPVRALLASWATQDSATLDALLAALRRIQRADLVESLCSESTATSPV

T4: mouse TNFR-1B (mouse, UniProt P25119 23-258)
T4 construct: also called mouse ortholog of TNFR-1B
T4 sequence (looked up): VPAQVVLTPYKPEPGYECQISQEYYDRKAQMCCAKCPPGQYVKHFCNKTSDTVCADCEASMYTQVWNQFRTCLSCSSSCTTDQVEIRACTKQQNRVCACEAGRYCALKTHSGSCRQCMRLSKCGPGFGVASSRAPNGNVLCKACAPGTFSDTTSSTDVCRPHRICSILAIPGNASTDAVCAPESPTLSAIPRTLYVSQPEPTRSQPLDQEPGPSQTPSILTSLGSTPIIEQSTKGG

B1: ICOS-L, human, expressed on HEK 293 cells (ligand, UniProt O75144 19-302, looked up)
chain: DTQEKEVRAMVGSDVELSCACPEGSRFDLNDVYVYWQTSESKTVVTYHIPQNSSLENVDSRYRNRALMSPAGMLRGDFSLRLFNVTPQDEQKFHCLVLSQSLGFQEVLSVEVTLHVAANFSVPVVSAPHSPSQDELTFTCTSINGYPRPNVYWINKTDNSLLDQALQNDTVFLNMRGLYDVVSVLRIARTPSVNIGCCIENVLLQQNLTVGSQTGNDIGERDKITENPVSTGEKNAATWSILAVLCLLVVVAVAIGWVCRDRCLQHSYAGAWAVSPETELTGHV
notes: whole, on cells; Expressed as GFP or mCherry fusion; Library form: ectodomain on the mouse PD-L1 transmembrane segment with GFP; also called Human ICOS-L
B2: TNFR-1B mutant N171D (receptor)
chain: T1 sequence with N171D
notes: Point mutant expressed as mCherry fusion in HEK 293 cells; not shown: C-terminal mCherry fusion
B3: TNFR-1B mutant T48A (receptor)
chain: T1 sequence with T48A
notes: as for B2
B4: MadCAM-1, human, expressed on HEK 293 cells (ligand, UniProt Q13477 19-382, looked up)
chain: QSLQVKPLQVEPPEPVVAVALGASRQLTCRLACADRGASVQWRGLDTSLGAVQSDTGRSVLTVRNASLSAAGTRVCVGSCGGRTFQHTVQLLVYAFPDQLTVSPAALVPGDPEVACTAHKVTPVDPNALSFSLLVGGQELEGAQALGPEVQEEEEEPQGDEDVLFRVTERWRLPPLGTPVPPALYCQATMRLPGLELSHRQAIPVLHSPTSPEPPDTTSPESPDTTSPESPDTTSQEPPDTTSPEPPDKTSPEPAPQQGSTHTPRSPGSTRTRRPEISQAGPTQGEVIPTGSSKPAGDQLPAALWTSSAVLGLLLLALPTYHLWKRCRHLAEDDTHPPASLRLLPQVSAWAGLRGTGQVGISPS
notes: whole, on cells; GFP or mCherry fusion; library form has the ectodomain on the mouse PD-L1 transmembrane segment
B5: TNFR-1B mutant K42D (receptor)
chain: T1 sequence with K42D
notes: as for B2
B6: B7-1, human, expressed on cells (ligand, UniProt P33681 35-288, looked up)
chain: VIHVTKEVKEVATLSCGHNVSVEELAQTRIYWQKEKKMVLTMMSGDMNIWPEYKNRTIFDITNNLSIVILALRPSDEGTYECVVLKYEKDAFKREHLAEVTLSVKADFPTPSISDFEIPTSNIRRIICSTSGGFPEPHLSWLENGEELNAINTTVSQDPETELYAVSSKLDFNMTTNHSFMCLIKYGHLRVNQTFNWNTTKQEHFPDNLLPSWAITLISVNGIFVICCLTYCFAPRCRERRRNERLRRESVRPV
notes: whole, on cells
B7: ICOS-L Fc-fusion protein (soluble, purified) (Fc fusion, human, UniProt O75144 19-256, looked up, not shown: a dimerising Fc or GST)
chain: DTQEKEVRAMVGSDVELSCACPEGSRFDLNDVYVYWQTSESKTVVTYHIPQNSSLENVDSRYRNRALMSPAGMLRGDFSLRLFNVTPQDEQKFHCLVLSQSLGFQEVLSVEVTLHVAANFSVPVVSAPHSPSQDELTFTCTSINGYPRPNVYWINKTDNSLLDQALQNDTVFLNMRGLYDVVSVLRIARTPSVNIGCCIENVLLQQNLTVGSQTGNDIGERDKITENPVSTGEKNAAT
notes: Expressed in HEK 293 cells, purified by Ni2+-NTA and gel filtration; Used soluble or on protein A microbeads; also called ICOS-L Fc (IgG2a); ICOS-L mIgG2a
B8: mouse ICOS-L (ligand, UniProt Q9JHJ8 47-277, looked up)
chain: ETEVGAMVGSNVVLSCIDPHRRHFNLSGLYVYWQIENPEVSVTYYLPYKSPGINVDSSYKNRGHLSLDSMKQGNFSLYLKNVTPQDTQEFTCRVFMNTATELVKILEEVVRLRVAANFSTPVISTSDSSNPGQERTYTCMSKNGYPEPNLYWINTTDNSLIDTALQNNTVYLNKLGLYDVISTLRLPWTSRGDVLCCVENVALHQNITSISQAESFTGNNTKNPQETHNNE
notes: also called mouse ortholog of ICOS-L

Tests used:
[1] = target: T1, tumor necrosis factor receptor 1B …; assay: listed as newly discovered in this disclosure (cell-cell FACS screens)
[2] = target: T2, TNFR-1B mutant D58A; assay: cell-cell FACS, mutant-mCherry cells vs ligand-GFP cells
[3] = target: B1; assay: as above
[4] = target: T5, TNFα, cell-surface displayed on HEK 293 cells (Homo sapiens (Human), UniProt P01375 1-233, Expressed as a GFP fusion on HEK 293 cells. GFP is left out of the chain. The native protein is a homotrimer.); assay: as above
T5 construct: also called TNF-alpha; cell surface expressed TNFα
T5 sequence (P01375 whole entry, form in doubt, the tested form may be a part): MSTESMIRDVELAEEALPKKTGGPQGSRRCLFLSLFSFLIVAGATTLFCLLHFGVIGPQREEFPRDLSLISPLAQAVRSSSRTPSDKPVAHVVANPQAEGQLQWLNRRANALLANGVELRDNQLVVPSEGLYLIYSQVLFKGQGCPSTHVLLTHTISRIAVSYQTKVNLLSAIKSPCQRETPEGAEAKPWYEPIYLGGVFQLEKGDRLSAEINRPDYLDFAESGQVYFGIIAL

[5] = target: T3, NGFR, human, expressed on cells; assay: cell-cell FACS screen, NGFR query cells vs GFP library cells
[6] = target: T1, tumor necrosis factor receptor 1B …; assay: soluble ICOS-L Fc on transfected cells, flow cytometry
[7] = target: T4, mouse TNFR-1B; assay: mouse constructs tested; assay not described (data not shown)

Binder: B1
- binding result [1]: binds
- binding result [2]: binds

Binder: B2
- binding as percent of wild-type [3]: ~50 % of wild-type
- binding as percent of wild-type [4]: ~50 % of wild-type

Binder: B3
- binding as percent of wild-type [3]: ~50 % of wild-type
- binding as percent of wild-type [4]: ~50 % of wild-type

Binder: B4
- binding result [1]: binds
- binding result [2]: binds

Binder: B5
- binding as percent of wild-type [3]: ~50 % of wild-type
- binding as percent of wild-type [4]: ~50 % of wild-type

Binder: B6
- binding result [5]: binds

Binder: B7
- binding result [6]: binds

Binder: B8
- binding result [7]: no binding
